The text below walks through data of PMC7056357.

Usually stoichiometry N stands for a count of units in the complex or per binding partner.

Where two headings read alike, the source gives them in different places.

Test [1] has as its target CCR5-mTFP1 (UniProt P51681).
Test [2] has as its target CD4-mRFP (human) (UniProt P01730). Put plainly: multicolour TIRF-dSTORM with interaction factor analysis.
Test [3] deals with T1, CXCR4-mTFP1 (human), P61073.
T1 chain: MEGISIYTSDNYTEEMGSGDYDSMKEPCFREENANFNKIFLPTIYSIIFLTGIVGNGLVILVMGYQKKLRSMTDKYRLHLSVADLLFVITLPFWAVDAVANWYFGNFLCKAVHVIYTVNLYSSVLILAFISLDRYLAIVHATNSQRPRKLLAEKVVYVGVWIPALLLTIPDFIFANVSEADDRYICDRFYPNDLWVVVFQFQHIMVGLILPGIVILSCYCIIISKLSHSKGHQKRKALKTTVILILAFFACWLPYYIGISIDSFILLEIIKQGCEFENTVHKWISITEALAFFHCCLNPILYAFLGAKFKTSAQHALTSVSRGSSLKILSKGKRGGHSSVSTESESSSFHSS
The settings on record: remark: other sources report otherwise.

Test [4] has the same target. Nature of the test: number and brightness. As to conditions: remark: other sources report otherwise.
The target of test [5] is T2, CXCR4-eYFP (human), P61073.
T2 chain: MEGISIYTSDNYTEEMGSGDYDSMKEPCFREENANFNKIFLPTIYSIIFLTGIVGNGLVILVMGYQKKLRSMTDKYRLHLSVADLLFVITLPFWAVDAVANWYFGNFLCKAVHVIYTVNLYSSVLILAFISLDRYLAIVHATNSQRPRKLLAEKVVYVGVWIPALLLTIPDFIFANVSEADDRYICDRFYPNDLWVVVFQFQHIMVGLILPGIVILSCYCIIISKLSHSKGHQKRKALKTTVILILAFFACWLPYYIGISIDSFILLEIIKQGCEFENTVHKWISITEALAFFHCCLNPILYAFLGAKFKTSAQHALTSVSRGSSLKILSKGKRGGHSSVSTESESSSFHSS
Put plainly: multicolour TIRF-dSTORM with interaction factor analysis. The settings on record: remark: other sources report otherwise.

UniProt P51681, sequence (P51681 whole entry): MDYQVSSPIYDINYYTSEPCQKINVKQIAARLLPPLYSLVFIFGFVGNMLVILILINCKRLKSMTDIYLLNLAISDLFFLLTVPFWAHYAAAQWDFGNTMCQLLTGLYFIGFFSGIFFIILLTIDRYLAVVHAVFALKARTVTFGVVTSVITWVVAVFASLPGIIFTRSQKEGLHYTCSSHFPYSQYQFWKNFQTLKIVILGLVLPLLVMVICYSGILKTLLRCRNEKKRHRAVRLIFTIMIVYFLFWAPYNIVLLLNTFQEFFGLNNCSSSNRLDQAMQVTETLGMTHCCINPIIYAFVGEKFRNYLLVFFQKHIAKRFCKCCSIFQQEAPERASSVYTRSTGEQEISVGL

For the molecule “HIV-1 JR-FL Env on HIV_(JR-FL) virions (complex)”, the CCR5 molecules bound to a single Env trimer in test [1] came to 2. In test [2], this molecule showed a probability of 3 CD4 molecules engaged with 1 Env spike of 0.36 and a probability of 4 CD4 molecules engaged with 1 Env spike of 0.1.

B1: CXCR4-mTFP1, P61073 1-352 (receptor)
chain: MEGISIYTSDNYTEEMGSGDYDSMKEPCFREENANFNKIFLPTIYSIIFLTGIVGNGLVILVMGYQKKLRSMTDKYRLHLSVADLLFVITLPFWAVDAVANWYFGNFLCKAVHVIYTVNLYSSVLILAFISLDRYLAIVHATNSQRPRKLLAEKVVYVGVWIPALLLTIPDFIFANVSEADDRYICDRFYPNDLWVVVFQFQHIMVGLILPGIVILSCYCIIISKLSHSKGHQKRKALKTTVILILAFFACWLPYYIGISIDSFILLEIIKQGCEFENTVHKWISITEALAFFHCCLNPILYAFLGAKFKTSAQHALTSVSRGSSLKILSKGKRGGHSSVSTESESSSFHSS
In the case of B1, the stoichiometry N in test [3] and in test [4] was 2 throughout.

B2: CXCR4-eYFP, P61073 1-352 (receptor)
chain: MEGISIYTSDNYTEEMGSGDYDSMKEPCFREENANFNKIFLPTIYSIIFLTGIVGNGLVILVMGYQKKLRSMTDKYRLHLSVADLLFVITLPFWAVDAVANWYFGNFLCKAVHVIYTVNLYSSVLILAFISLDRYLAIVHATNSQRPRKLLAEKVVYVGVWIPALLLTIPDFIFANVSEADDRYICDRFYPNDLWVVVFQFQHIMVGLILPGIVILSCYCIIISKLSHSKGHQKRKALKTTVILILAFFACWLPYYIGISIDSFILLEIIKQGCEFENTVHKWISITEALAFFHCCLNPILYAFLGAKFKTSAQHALTSVSRGSSLKILSKGKRGGHSSVSTESESSSFHSS
Turning to B2, the stoichiometry N in test [5] stood at 2.
